± gives the uncertainty stated by the source.
B1: Ras GTPase-activating protein 1, residues 281 to 341; numbered along this chain, P20936 (parent)
chain: RRRVRAILPYTKVPDTDEISFLKGDMFIVHNELEDGWMWVTNLRTDEQGLIVEDLVEEVGR

Variants of: B1
Assay: abundance fitness (aPCA) (normalised: wild type 0, dead -1); higher = more abundant; growth selection in yeast, the domain comes from the species named
Conditions: Homo sapiens

Row | Variant | abundance fitness
1 | RRRVRAILPYTKVPDTDEISFLKGDMFIVHNELEDGWMKVTNLRTDEQGLIVEDLVEEVGR [W39K] | -0.118 ± 0.037
2 | RRRVRAILPYTKVPDTDEISFLKGDMFIVHNELEDGWMQVTNLRTDEQGLIVEDLVEEVGR [W39Q] | -0.079 ± 0.046
3 | RRRVRAILPYTKVPDTDEISFLKGDMFIVHNELEDGWMEVTNLRTDEQGLIVEDLVEEVGR [W39E] | 0.003 ± 0.032
4 | RRRVRAILPYTKVPDTDEISFLKGDMFIVHNELEDGWMDVTNLRTDEQGLIVEDLVEEVGR [W39D] | -0.226 ± 0.023
5 | RRRVRAILPYTKVPDTDEISFLKGDMFIVHNELEDGWMFVTNLRTDEQGLIVEDLVEEVGR [W39F] | -0.034 ± 0.021
6 | RRRVRAILPYTKVPDTDEISFLKGDMFIVHNELEDGWMCVTNLRTDEQGLIVEDLVEEVGR [W39C] | -0.187 ± 0.021
7 | RRRVRAILPYTKVPDTDEISFLKGDMFIVHNELEDGWMMVTNLRTDEQGLIVEDLVEEVGR [W39M] | -0.094 ± 0.03
8 | RRRVRAILPYTKVPDTDEISFLKGDMFIVHNELEDGWMPVTNLRTDEQGLIVEDLVEEVGR [W39P] | -0.796 ± 0.043
9 | RRRVRAILPYTKVPDTDEISFLKGDMFIVHNELEDGWMIVTNLRTDEQGLIVEDLVEEVGR [W39I] | -0.284 ± 0.021
10 | RRRVRAILPYTKVPDTDEISFLKGDMFIVHNELEDGWMRVTNLRTDEQGLIVEDLVEEVGR [W39R] | -0.03 ± 0.023
11 | RRRVRAILPYTKVPDTDEISFLKGDMFIVHNELEDGWMGVTNLRTDEQGLIVEDLVEEVGR [W39G] | -0.67 ± 0.024
12 | RRRVRAILPYTKVPDTDEISFLKGDMFIVHNELEDGWMTVTNLRTDEQGLIVEDLVEEVGR [W39T] | -0.26 ± 0.023
13 | RRRVRAILPYTKVPDTDEISFLKGDMFIVHNELEDGWMHVTNLRTDEQGLIVEDLVEEVGR [W39H] | -0.204 ± 0.024
14 | RRRVRAILPYTKVPDTDEISFLKGDMFIVHNELEDGWMYVTNLRTDEQGLIVEDLVEEVGR [W39Y] | -0.009 ± 0.023
15 | RRRVRAILPYTKVPDTDEISFLKGDMFIVHNELEDGWMNVTNLRTDEQGLIVEDLVEEVGR [W39N] | -0.134 ± 0.022
16 | RRRVRAILPYTKVPDTDEISFLKGDMFIVHNELEDGWMLVTNLRTDEQGLIVEDLVEEVGR [W39L] | -0.063 ± 0.022
17 | RRRVRAILPYTKVPDTDEISFLKGDMFIVHNELEDGWMVVTNLRTDEQGLIVEDLVEEVGR [W39V] | -0.195 ± 0.021
18 | RRRVRAILPYTKVPDTDEISFLKGDMFIVHNELEDGIMWVTNLRTDEQGLIVEDLVEEVGR [W37I] | -0.104 ± 0.022
19 | RRRVRAILPYTKVPDTDEISFLKGDMFIVHNELEDGPMWVTNLRTDEQGLIVEDLVEEVGR [W37P] | -0.795 ± 0.037
20 | RRRVRAILPYTKVPDTDEISFLKGDMFIVHNELEDGFMWVTNLRTDEQGLIVEDLVEEVGR [W37F] | -0.004 ± 0.021
21 | RRRVRAILPYTKVPDTDEISFLKGDMFIVHNELEDGKMWVTNLRTDEQGLIVEDLVEEVGR [W37K] | 0.121 ± 0.037
22 | RRRVRAILPYTKVPDTDEISFLKGDMFIVHNELEDGCMWVTNLRTDEQGLIVEDLVEEVGR [W37C] | -0.016 ± 0.021

Row | Variant | abundance fitness
23 | RRRVRAILPYTKVPDTDEISFLKGDMFIVHNELEDGHMWVTNLRTDEQGLIVEDLVEEVGR [W37H] | 0.044 ± 0.022
24 | RRRVRAILPYTKVPDTDEISFLKGDMFIVHNELEDGMMWVTNLRTDEQGLIVEDLVEEVGR [W37M] | 0.006 ± 0.037
25 | RRRVRAILPYTKVPDTDEISFLKGDMFIVHNELEDGTMWVTNLRTDEQGLIVEDLVEEVGR [W37T] | 0.037 ± 0.024
26 | RRRVRAILPYTKVPDTDEISFLKGDMFIVHNELEDGYMWVTNLRTDEQGLIVEDLVEEVGR [W37Y] | 0.024 ± 0.021
27 | RRRVRAILPYTKVPDTDEISFLKGDMFIVHNELEDGEMWVTNLRTDEQGLIVEDLVEEVGR [W37E] | -0.176 ± 0.036
28 | RRRVRAILPYTKVPDTDEISFLKGDMFIVHNELEDGLMWVTNLRTDEQGLIVEDLVEEVGR [W37L] | -0.003 ± 0.022
29 | RRRVRAILPYTKVPDTDEISFLKGDMFIVHNELEDGQMWVTNLRTDEQGLIVEDLVEEVGR [W37Q] | 0.073 ± 0.042
30 | RRRVRAILPYTKVPDTDEISFLKGDMFIVHNELEDGSMWVTNLRTDEQGLIVEDLVEEVGR [W37S] | 0.004 ± 0.02
31 | RRRVRAILPYTKVPDTDEISFLKGDMFIVHNELEDGRMWVTNLRTDEQGLIVEDLVEEVGR [W37R] | 0.088 ± 0.021
32 | RRRVRAILPYTKVPDTDEISFLKGDMFIVHNELEDGGMWVTNLRTDEQGLIVEDLVEEVGR [W37G] | -0.049 ± 0.02
33 | RRRVRAILPYTKVPDTDEISFLKGDMFIVHNELEDGAMWVTNLRTDEQGLIVEDLVEEVGR [W37A] | -0.014 ± 0.021
34 | RRRVRAILPYTKVPDTDEISFLKGDMFIVHNELEDGWCWVTNLRTDEQGLIVEDLVEEVGR [M38C] | -0.228 ± 0.028
35 | RRRVRAILPYTKVPDTDEISFLKGDMFIVHNELEDGWEWVTNLRTDEQGLIVEDLVEEVGR [M38E] | -1.24 ± 0.24
36 | RRRVRAILPYTKVPDTDEISFLKGDMFIVHNELEDGWNWVTNLRTDEQGLIVEDLVEEVGR [M38N] | -0.623 ± 0.042
37 | RRRVRAILPYTKVPDTDEISFLKGDMFIVHNELEDGWFWVTNLRTDEQGLIVEDLVEEVGR [M38F] | -0.18 ± 0.031
38 | RRRVRAILPYTKVPDTDEISFLKGDMFIVHNELEDGWWWVTNLRTDEQGLIVEDLVEEVGR [M38W] | -0.438 ± 0.065
39 | RRRVRAILPYTKVPDTDEISFLKGDMFIVHNELEDGWHWVTNLRTDEQGLIVEDLVEEVGR [M38H] | -0.865 ± 0.061
40 | RRRVRAILPYTKVPDTDEISFLKGDMFIVHNELEDGWSWVTNLRTDEQGLIVEDLVEEVGR [M38S] | -0.451 ± 0.029
41 | RRRVRAILPYTKVPDTDEISFLKGDMFIVHNELEDGWAWVTNLRTDEQGLIVEDLVEEVGR [M38A] | -0.396 ± 0.036
42 | RRRVRAILPYTKVPDTDEISFLKGDMFIVHNELEDGWLWVTNLRTDEQGLIVEDLVEEVGR [M38L] | -0.013 ± 0.031
43 | RRRVRAILPYTKVPDTDEISFLKGDMFIVHNELEDGWDWVTNLRTDEQGLIVEDLVEEVGR [M38D] | -0.871 ± 0.055

Source: the Human Domainome abundance scans (Beltran et al. 2025)
